Changes are numbered by the printed parent chain. Names and notes keep the numbering of the source.
B1: GST-CT_(S715A) domain (domain or fragment, human, UniProt Q99661 700-725, looked up)
chain: VIKALRLAMQLEEQAARQISSKKRPQ
notes: MCAK (Kif2c) CT domain, human, residues 700-725 as stated (the printed primers of the parent encode 701-725); source: E. coli BL21(DE3) Codon plus, purified (glutathione-sepharose, gel filtration)
B2: GST-CT_(I718A) domain (domain or fragment, human, UniProt Q99661 700-725, looked up)
chain: VIKALRLAMQLEEQASRQASSKKRPQ
notes: as for B1
B3: MCAK C-terminal tail (CT) domain, GST cleaved and removed (peptide, UniProt Q99661 700-725, looked up)
chain: VIKALRLAMQLEEQASRQISSKKRPQ
notes: MCAK (Kif2c) C-terminal tail (CT domain), human, residues 700-725 as stated; also called free CT domain; C terminus; source: E. coli BL21(DE3) Codon plus, purified as GST fusion, GST cleaved with GST-3C protease and removed
B4: GST-CT_(E712C) domain (domain or fragment, human, UniProt Q99661 700-725, looked up)
chain: VIKALRLAMQLECQASRQISSKKRPQ
notes: MCAK (Kif2c) CT domain, human, residues 700-725 as stated (the printed primers of the parent encode 701-725); Designed to form a disulphide bridge with Cys287 of the motor domain without DTT; source: E. coli BL21(DE3) Codon plus, purified (glutathione-sepharose, gel filtration)
B5: His-MCAK (1-725), full-length MCAK (natural protein, human, UniProt Q99661 1-725, looked up)
chain: MAMDSSLQARLFPGLAIKIQRSNGLIHSANVRTVNLEKSCVSVEWAEGGATKGKEIDFDDVAAINPELLQLLPLHPKDNLPLQENVTIQKQKRRSVNSKIPAPKESLRSRSTRMSTVSELRITAQENDMEVELPAAANSRKQFSVPPAPTRPSCPAVAEIPLRMVSEEMEEQVHSIRGSSSANPVNSVRRKSCLVKEVEKMKNKREEKKAQNSEMRMKRAQEYDSSFPNWEFARMIKEFRATLECHPLTMTDPIEEHRICVCVRKRPLNKQELAKKEIDVISIPSKCLLLVHEPKLKVDLTKYLENQAFCFDFAFDETASNEVVYRFTARPLVQTIFEGGKATCFAYGQTGSGKTHTMGGDLSGKAQNASKGIYAMASRDVFLLKNQPCYRKLGLEVYVTFFEIYNGKLFDLLNKKAKLRVLEDGKQQVQVVGLQEHLVNSADDVIKMIDMGSACRTSGQTFANSNSSRSHACFQIILRAKGRMHGKFSLVDLAGNERGADTSSADRQTRMEGAEINKSLLALKECIRALGQNKAHTPFRESKLTQVLRDSFIGENSRTCMIATISPGISSCEYTLNTLRYADRVKELSPHSGPSGEQLIQMETEEMEACSNGALIPGNLSKEEEELSSQMSSFNEAMTQIRELEEKAMEELKEIIQQGPDWLELSEMTEQPDYDLETFVNKAESALAQQAKHFSALRDVIKALRLAMQLEEQASRQISSKKRPQ
notes: MCAK (Kif2c), human, residues 1-725, full length; Cloned in the pFL vector; also called wild type MCAK; Kif2c; source: Sf9 (baculovirus), purified
B6: His-MCAK_(E712C), full length (natural protein, human, UniProt Q99661 1-725, looked up)
chain: B5 chain with E712C
notes: MCAK (Kif2c), human, residues 1-725, full length; Without DTT a disulphide between Cys712 and Cys287 is intended; also called full-length MCAK_(E712C); source: Sf9 (baculovirus), purified
B7: His-MCAK_(S715E), full length (natural protein, human, UniProt Q99661 1-725, looked up)
chain: B5 chain with S715E
notes: MCAK (Kif2c), human, residues 1-725, full length; also called full-length MCAK_(S715E); source: Sf9 (baculovirus), purified
B8: GST-CT_(R716A) domain (domain or fragment, human, UniProt Q99661 700-725, looked up)
chain: VIKALRLAMQLEEQASAQISSKKRPQ
notes: as for B1

Columns and labels:
[1] = target: T1, His-MCAK motor region with the neck linker region (M) (human, UniProt Q99661 183-583); experiment: pull-down; resin-based binding assay: GST-CT or GST-CT point mutants (GST as a control) on glutathione agarose beads; purified His-M, His-NM or cleaved CT domain added; Coomassie-stained gel; conditions: both partners purified
T1 construct: MCAK (Kif2c), human, neck linker region and motor region; the methods state residues 183-583, the results state 181-583; Cloned in pET3aTr; also called motor domain; MCAK motor domain; source: E. coli BL21(DE3) Codon plus, purified (Ni-NTA, gel filtration)

[2] = target: T1, His-MCAK motor region with the neck …; experiment: SEC-MALS; motor domain with CT domain; Superdex 200 10/300 GL; 2 mg/ml in 100 mM HEPES, pH 7.2, 150 mM NaCl; conditions: both partners purified
[3] = target: T1, His-MCAK motor region with the neck …; experiment: other fluorescence titration; intrinsic tryptophan/aromatic fluorescence (excitation 295 and 280 nm) of 1 μM motor domain, CT domain titrated 0 to 15,660 nM; 25°C; 100 mM HEPES, pH 7.4, 150 mM NaCl; motor pre-treated with EDTA to remove ADP; conditions: both partners purified
[4] = target: B7; experiment: co-sedimentation; competition: 100 nM full-length MCAK_(S715E) with 2 μM taxol-stabilized microtubules and increasing concentration of cleaved free CT domain; western blot; conditions: both partners purified
[5] = target: T1, His-MCAK motor region with the neck …; experiment: SEC; analytical gel filtration of the motor with GST-CT_(E712C) under oxidizing conditions; fractions on Coomassie-stained SDS-PAGE; conditions: both partners purified
[6] = target: the molecule itself; experiment: SEC; gel filtration of full-length MCAK proteins alone; elution compared with wild type full-length MCAK

Row | Binder | binding result [1] | binding result [6] | further results
1 | B1 | binds | – | –
2 | B2 | binds | – | –
3 | B3 | – | – | stoichiometry N [2]: 0.5 CT domain per motor domain; Kd [3]: ~1100 nM; binding result [4]: binds
4 | B4 | – | – | stoichiometry N [5]: 0.5 CT domain per motor
5 | B5 | – | binds | –
6 | B6 | – | binds | –
7 | B7 | – | binds | –
8 | B8 | binds | – | –
